From US20200339690A1 (JOUNCE THERAPEUTICS, published 2020)

Experiments:
[1] = target: T1, human LILRB2 expressed on cells (human, UniProt Q8N423 22-597); test: cell-based or functional assay
human LILRA1 = target: T2, human LILRA1 (human, UniProt O75019 17-489); test: flow cytometry, LILRA1 CHOs
T2 construct: Over-expressed on CHO-s cells; also called hLILRA1

human LILRA2 = target: T3, human LILRA2 (human, UniProt Q8N149 24-483); test: flow cytometry, LILRA2 CHOs
T3 construct: Over-expressed on CHO-s cells; also called hLILRA2
T3 sequence (Q8N149 24-483 S135L limits assumed): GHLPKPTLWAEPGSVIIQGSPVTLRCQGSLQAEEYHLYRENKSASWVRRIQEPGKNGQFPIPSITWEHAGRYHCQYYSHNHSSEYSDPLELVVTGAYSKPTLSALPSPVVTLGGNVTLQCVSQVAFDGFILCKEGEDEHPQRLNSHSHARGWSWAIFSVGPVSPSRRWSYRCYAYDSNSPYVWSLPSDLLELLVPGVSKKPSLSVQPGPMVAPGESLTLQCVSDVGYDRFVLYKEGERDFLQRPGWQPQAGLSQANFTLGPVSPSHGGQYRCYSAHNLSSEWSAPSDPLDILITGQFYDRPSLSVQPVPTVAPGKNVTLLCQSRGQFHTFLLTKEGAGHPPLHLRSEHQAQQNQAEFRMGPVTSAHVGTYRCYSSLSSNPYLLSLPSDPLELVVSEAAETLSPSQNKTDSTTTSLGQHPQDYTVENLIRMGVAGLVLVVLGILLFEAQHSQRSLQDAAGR

human LILRA3 = target: T4, human LILRA3 (human, UniProt Q8N6C8 24-439); test: flow cytometry, LILRA3 CHOs
T4 construct: Over-expressed on CHO-s cells; also called hLILRA3
T4 sequence (Q8N6C8 24-439 limits assumed): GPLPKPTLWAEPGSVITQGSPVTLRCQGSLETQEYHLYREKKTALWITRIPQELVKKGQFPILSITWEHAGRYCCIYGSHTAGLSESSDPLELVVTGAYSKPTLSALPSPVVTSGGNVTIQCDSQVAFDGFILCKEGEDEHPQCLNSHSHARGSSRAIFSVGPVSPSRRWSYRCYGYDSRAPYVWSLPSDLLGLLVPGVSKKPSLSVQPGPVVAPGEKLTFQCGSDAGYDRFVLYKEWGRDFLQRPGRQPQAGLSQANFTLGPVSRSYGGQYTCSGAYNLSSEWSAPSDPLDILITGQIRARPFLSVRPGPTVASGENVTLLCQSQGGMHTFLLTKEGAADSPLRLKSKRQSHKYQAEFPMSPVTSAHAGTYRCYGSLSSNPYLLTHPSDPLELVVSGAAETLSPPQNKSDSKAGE

human LILRA5 = target: T5, human LILRA5 (human, UniProt A6NI73 42-299); test: flow cytometry, LILRA5 CHOs
T5 construct: Over-expressed on CHO-s cells; also called hLILRA5
T5 sequence (A6NI73 42-299 limits assumed): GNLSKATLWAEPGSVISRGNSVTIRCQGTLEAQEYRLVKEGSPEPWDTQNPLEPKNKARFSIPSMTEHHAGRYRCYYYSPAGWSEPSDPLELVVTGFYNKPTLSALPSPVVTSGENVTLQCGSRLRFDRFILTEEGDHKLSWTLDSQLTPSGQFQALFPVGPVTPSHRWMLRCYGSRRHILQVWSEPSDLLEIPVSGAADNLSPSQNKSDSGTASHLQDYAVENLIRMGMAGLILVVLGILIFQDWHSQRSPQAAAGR

human LILRA6 = target: T6, human LILRA6 (human, UniProt Q6PI73 24-481); test: flow cytometry, LILRA6 CHOs
T6 construct: Over-expressed on CHO-s cells; also called hLILRA6
T6 sequence (Q6PI73 24-481 limits assumed): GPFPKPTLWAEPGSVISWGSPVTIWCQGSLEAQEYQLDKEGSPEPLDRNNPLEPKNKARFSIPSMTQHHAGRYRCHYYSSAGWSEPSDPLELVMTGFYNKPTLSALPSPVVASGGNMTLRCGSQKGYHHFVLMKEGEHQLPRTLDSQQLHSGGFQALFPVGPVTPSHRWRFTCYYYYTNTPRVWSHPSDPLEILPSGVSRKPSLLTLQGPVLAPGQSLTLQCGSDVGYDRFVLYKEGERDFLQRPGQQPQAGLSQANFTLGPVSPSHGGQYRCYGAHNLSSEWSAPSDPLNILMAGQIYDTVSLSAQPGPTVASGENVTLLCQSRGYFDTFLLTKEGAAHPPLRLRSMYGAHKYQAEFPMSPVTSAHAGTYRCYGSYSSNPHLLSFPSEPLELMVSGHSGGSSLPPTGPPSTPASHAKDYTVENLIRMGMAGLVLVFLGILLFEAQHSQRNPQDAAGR

human LILRB1 = target: T7, human LILRB1 (human, UniProt Q8NHL6 24-650); test: flow cytometry, LILRB1 CHOs
T7 construct: Over-expressed on CHO-s cells; also called hLILRB1
T7 sequence (Q8NHL6 24-650 limits assumed): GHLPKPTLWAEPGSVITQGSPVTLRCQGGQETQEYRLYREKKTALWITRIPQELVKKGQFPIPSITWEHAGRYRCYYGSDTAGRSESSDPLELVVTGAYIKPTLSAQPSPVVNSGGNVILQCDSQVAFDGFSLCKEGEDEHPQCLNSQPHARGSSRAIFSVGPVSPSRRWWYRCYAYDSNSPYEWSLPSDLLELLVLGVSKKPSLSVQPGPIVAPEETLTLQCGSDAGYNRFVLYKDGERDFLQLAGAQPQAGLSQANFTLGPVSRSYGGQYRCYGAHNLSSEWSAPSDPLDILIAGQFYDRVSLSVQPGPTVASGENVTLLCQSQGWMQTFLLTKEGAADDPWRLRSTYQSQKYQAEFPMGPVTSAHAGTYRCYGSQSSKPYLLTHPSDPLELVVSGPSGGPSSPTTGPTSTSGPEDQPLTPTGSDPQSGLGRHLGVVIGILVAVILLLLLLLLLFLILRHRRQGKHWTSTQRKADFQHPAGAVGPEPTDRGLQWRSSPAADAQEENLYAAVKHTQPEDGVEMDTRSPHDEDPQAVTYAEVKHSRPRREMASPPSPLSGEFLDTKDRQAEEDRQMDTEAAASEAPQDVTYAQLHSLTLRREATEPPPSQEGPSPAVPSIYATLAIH

[2] = target: T1, human LILRB2 expressed on cells; test: flow cytometry, LILRB2 CHOs
human LILRB3 = target: T8, human LILRB3 (human, UniProt O75022 24-631); test: flow cytometry, LILRB3 CHOs
T8 construct: Over-expressed on CHO-s cells; also called hLILRB3

human LILRB4 = target: T9, human LILRB4 (human, UniProt Q8NHJ6 22-448); test: flow cytometry, LILRB4 CHOs
T9 construct: Over-expressed on CHO-s cells; also called hLILRB4

human LILRB5 = target: T10, human LILRB5 (human, UniProt O75023 24-590); test: flow cytometry, LILRB5 CHOs
T10 construct: Over-expressed on CHO-s cells; also called hLILRB5
T10 sequence (O75023 24-590 P542R limits assumed): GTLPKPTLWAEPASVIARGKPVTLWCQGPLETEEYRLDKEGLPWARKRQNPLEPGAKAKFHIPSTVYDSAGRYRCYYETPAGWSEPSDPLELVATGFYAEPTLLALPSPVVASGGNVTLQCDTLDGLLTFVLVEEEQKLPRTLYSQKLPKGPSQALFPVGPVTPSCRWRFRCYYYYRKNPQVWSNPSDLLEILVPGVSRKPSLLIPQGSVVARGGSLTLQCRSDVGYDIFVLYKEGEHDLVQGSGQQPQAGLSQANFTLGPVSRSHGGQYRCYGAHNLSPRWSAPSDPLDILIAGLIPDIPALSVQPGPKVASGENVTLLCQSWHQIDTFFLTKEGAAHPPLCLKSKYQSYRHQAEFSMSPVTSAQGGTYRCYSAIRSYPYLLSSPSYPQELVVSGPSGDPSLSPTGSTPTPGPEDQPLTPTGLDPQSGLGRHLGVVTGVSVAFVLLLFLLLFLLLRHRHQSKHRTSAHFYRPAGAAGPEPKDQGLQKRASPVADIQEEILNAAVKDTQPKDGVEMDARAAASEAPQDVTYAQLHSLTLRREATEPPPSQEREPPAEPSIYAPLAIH

[3] = target: T1, human LILRB2 expressed on cells; test: blocking of HLA-G tetramer on LILRB2 CHOs, flow cytometry, mAb 10 ug/mL
Protocol: (§1) In the secondary screen, 1×10⁵ CHO-s cells over-expressing human LILRB2 were plated in 96-well round-bottom tissue culture-treated plate and washed twice with 1×DPBS (Gibco) and incubated with 10 μg/mL primary antibody (anti-LILRB2 mAbs or control) prepared in 50 μL FACS buffer (1×DPBS containing 2% HI-FBS (Sigma)+0.05% Sodium Azide). After incubation with mAbs for 30 minutes at 4° C., cells were washed twice in FACS buffer and then resuspended in 50 μL of FACS buffer containing 5 μg/mL APC-conjugated HLA-A2 or HLA-G tetramer (Fred Hutch). Cells were incubated protected from light for 30-60 minutes at 4° C. After incubation with tetramer, cells were washed in FACS buffer and re-suspended in fix buffer (1.5% paraformaldehyde diluted in 1×DPBS). Samples were analyzed using the Celesta flow cytometer analyzer (BD Biosciences). Data represent percent tetramer blocked by mAbs relative to tetramer alone, calculated according to the following equation: […]

[4] = target: T1, human LILRB2 expressed on cells; test: blocking of HLA-A2 tetramer on LILRB2 CHOs, flow cytometry, mAb 10 ug/mL
Protocol: as §1

T2 sequence (O75019 17-489 limits assumed): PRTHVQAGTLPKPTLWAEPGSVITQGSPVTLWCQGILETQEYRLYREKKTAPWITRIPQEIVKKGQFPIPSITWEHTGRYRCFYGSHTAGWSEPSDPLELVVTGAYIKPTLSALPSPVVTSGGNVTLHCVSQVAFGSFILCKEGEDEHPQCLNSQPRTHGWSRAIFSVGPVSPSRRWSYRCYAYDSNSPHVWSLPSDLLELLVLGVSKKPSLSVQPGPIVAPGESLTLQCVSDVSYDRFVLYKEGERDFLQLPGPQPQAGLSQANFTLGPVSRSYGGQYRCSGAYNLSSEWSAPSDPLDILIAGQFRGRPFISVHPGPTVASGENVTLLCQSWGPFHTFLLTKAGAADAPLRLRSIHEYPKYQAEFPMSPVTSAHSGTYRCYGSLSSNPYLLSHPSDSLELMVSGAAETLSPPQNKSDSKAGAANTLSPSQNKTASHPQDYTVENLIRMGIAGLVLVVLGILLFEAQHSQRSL
T1 sequence (Q8N423 other isoform, or with tags, fused parts or gaps limits assumed): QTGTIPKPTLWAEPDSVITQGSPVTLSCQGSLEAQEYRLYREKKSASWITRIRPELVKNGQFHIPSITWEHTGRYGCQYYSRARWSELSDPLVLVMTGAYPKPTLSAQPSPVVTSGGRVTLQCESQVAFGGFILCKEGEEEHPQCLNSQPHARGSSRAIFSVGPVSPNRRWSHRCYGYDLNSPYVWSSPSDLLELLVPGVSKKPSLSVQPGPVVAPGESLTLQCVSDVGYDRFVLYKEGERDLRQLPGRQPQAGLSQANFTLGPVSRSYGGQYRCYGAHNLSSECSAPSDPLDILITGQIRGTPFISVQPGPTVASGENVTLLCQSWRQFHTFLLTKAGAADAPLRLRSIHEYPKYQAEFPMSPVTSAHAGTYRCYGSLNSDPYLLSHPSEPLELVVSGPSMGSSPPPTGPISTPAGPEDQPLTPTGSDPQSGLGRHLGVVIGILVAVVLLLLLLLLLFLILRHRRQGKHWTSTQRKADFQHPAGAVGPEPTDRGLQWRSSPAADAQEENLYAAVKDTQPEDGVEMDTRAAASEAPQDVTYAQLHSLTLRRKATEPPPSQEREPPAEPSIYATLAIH

B1: J-04 (antibody, human IgG4 S228P, kappa, V domains shown)
VH: QVQLQQSGAELVRPGASVTLSCKASGYTFADYEIHWVKQTPVHGLEWIGAIDPETGGTAYNQKFKGKAILTADKSSSTAYMELRSLTSEDSAVYYCTRYYDYDDAMDYWGQGTSVTVSS
VL: QIVLTQSPAIMSASPGEKVTMTCSASSSVSFMHWYQQKSGTSPKRWIYGTSKLASGVPARFSGSGSGTSYSLTISSMEAEDAATYYCQQWNGNPFTFGSGTKLETKR
notes: Human IgG4 chimera of murine origin
CCL2 production (fold over LPS alone) [1]: 1 fold over LPS alone | IL-6 production (fold over LPS alone) [1]: 1.36 fold over LPS alone | IL-10 production (fold over LPS alone) [1]: 0.95 fold over LPS alone | TNFa production (fold over LPS alone) [1]: 1.18 fold over LPS alone | binding (fold over iso) (human LILRA1): 0.88 fold over iso | binding result (human LILRA1): no binding | binding (fold over iso) (human LILRA2): 1.62 fold over iso | binding result (human LILRA2): no binding | binding (fold over iso) (human LILRA3): 0.93 fold over iso | binding result (human LILRA3): no binding | binding (fold over iso) (human LILRA5): 0.74 fold over iso | binding result (human LILRA5): no binding | binding (fold over iso) (human LILRA6): 1.3 fold over iso | binding result (human LILRA6): no binding | binding (fold over iso) (human LILRB1): 0.95 fold over iso | binding result (human LILRB1): no binding | binding (fold over iso) [2]: 33.8 fold over iso | binding (fold over iso) (human LILRB3): 0.9 fold over iso | binding result (human LILRB3): no binding | binding (fold over iso) (human LILRB4): 0.83 fold over iso | binding result (human LILRB4): no binding | binding (fold over iso) (human LILRB5): 1.08 fold over iso | binding result (human LILRB5): no binding | HLA-G:LILRB2 CHOs blocking (% blocked) [3]: -255 % blocked | HLA-A2:LILRB2 CHOs blocking (% blocked) [4]: -319 % blocked

B2: J-03 (antibody, human IgG4 S228P, kappa, V domains shown)
VH: QVQLQQSGAELVRPGASVTLSCKASGYKFTDYEMHWVKQTPVHGLEWIGAIDPETNGTAYNKKFKGKAILTADKSSSTAYMELRSLTSEDSAVYYCTRGDYDFSAWFAYWGQGTLVTVSA
VL: DIVLTQSPASLAVSLGQRATISCRASESVDNYDISFMHWYQQKPGQPPKLLIYRASNLESGIPARFSGSGSRTDFTLTINPVETDDVATYYCQQSNKDPRTFGGGTKLEIKR
notes: as for B1
CCL2 production (fold over LPS alone) [1]: 0.95 fold over LPS alone | IL-6 production (fold over LPS alone) [1]: 1.1 fold over LPS alone | IL-10 production (fold over LPS alone) [1]: 0.97 fold over LPS alone | TNFa production (fold over LPS alone) [1]: 1.27 fold over LPS alone | binding (fold over iso) (human LILRA1): 0.89 fold over iso | binding result (human LILRA1): no binding | binding (fold over iso) (human LILRA2): 1.58 fold over iso | binding result (human LILRA2): no binding | binding (fold over iso) (human LILRA3): 1.05 fold over iso | binding result (human LILRA3): no binding | binding (fold over iso) (human LILRA5): 0.96 fold over iso | binding result (human LILRA5): no binding | binding (fold over iso) (human LILRA6): 1.23 fold over iso | binding result (human LILRA6): no binding | binding (fold over iso) (human LILRB1): 0.94 fold over iso | binding result (human LILRB1): no binding | binding (fold over iso) [2]: 30.1 fold over iso | binding (fold over iso) (human LILRB3): 0.97 fold over iso | binding result (human LILRB3): no binding | binding (fold over iso) (human LILRB4): 1.02 fold over iso | binding result (human LILRB4): no binding | binding (fold over iso) (human LILRB5): 1 fold over iso | binding result (human LILRB5): no binding | HLA-G:LILRB2 CHOs blocking (% blocked) [3]: -156 % blocked | HLA-A2:LILRB2 CHOs blocking (% blocked) [4]: -208 % blocked
